The values below come from publication PMC3510516.

Experiment in all cases: fluorescence anisotropy
For orientation: In fluorescence polarisation assays a small probe gives low polarisation when free and higher when bound to something large.

The subject of series [1] is GyrA CTD (Bacillus subtilis). The conditions noted are these: CTD: 50 mM Tris-HCl, 40 mM KCl (Results say NaCl), 10 mM MgCl2, 25 C (pH not stated), 100 nM DNA; gyrase: 50 mM Tris-HCl pH 7.5, 100 mM KCl, 10 mM MgCl2, 37 C ….
The test system of series [2] is GyrA CTD lacking GyrA-box (Bacillus subtilis). The conditions noted are these: CTD: 50 mM Tris-HCl, 40 mM KCl (Results say NaCl), 10 mM MgCl2, 25 C (pH not stated), 100 nM DNA; gyrase: 50 mM Tris-HCl pH 7.5, 100 mM KCl, 10 mM MgCl2, 37 C ….
The test system of series [3] is GyrA lacking GyrA-box (GyrA_dA);GyrB (Bacillus subtilis;Bacillus subtilis). The conditions noted are these: 4 uM GyrB, 10 mM Mg2+, 37 C; CTD: 50 mM Tris-HCl, 40 mM KCl (Results say NaCl), 10 mM MgCl2, 25 C (pH not stated), 100 nM DNA; gyrase: 50 mM Tris-HCl pH 7.5, 100 mM KCl, 10 mM MgCl2, 37 C ….
The test system of series [4] is GyrA;GyrB (Bacillus subtilis;Bacillus subtilis). The conditions noted are these: 4 uM GyrB, 10 mM Mg2+, 37 C; CTD: 50 mM Tris-HCl, 40 mM KCl (Results say NaCl), 10 mM MgCl2, 25 C (pH not stated), 100 nM DNA; gyrase: 50 mM Tris-HCl pH 7.5, 100 mM KCl, 10 mM MgCl2, 37 C ….

The Kd is the constant that tells how readily two partners part at equilibrium. Read a high Kd as weaker binding.

With 40-bp DNA wrapping substrate, the dissociation constant Kd in series [1] came to 13.2 µM; in series [2], 13.1 µM.
Regarding 60-bp gate-DNA, the Kd was 0.05 µM in series [3] and 0.063 µM in series [4].
